The data set has as its system MS2 coat protein. Put plainly: apparent KD of MS2 coat protein; designed switch direction (-1 OFF switch, 1 ON switch): -1; higher = weaker reporter binding. The method, boiled down:
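Transcription of designed RNA switches on Illumina chips was done by stalled E. coli RNA polymerase. SNAP-549-labelled MS2 coat protein was then titrated in doubling steps from 0.7 or 1.5 nM to 3 µM, with steps of 0.8–1.5 h at the lowest and 10–20 min at the highest concentration. The per-design median over clusters of curve-fitted normalised fluorescence is reported as apparent KD.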

Setting [1] is: Eterna round: R95, input ligand: microRNA oligo, concentration not stated.

“CCUUAGGGAGGAUAUACAUGAGGAUCACCCAUGUACCGCGGCGCGUUCACACGGGUGGGUAGAAGGCCCUCACU [Colors] (Eterna round: R97, puzzle: Exclusion 3)”: the “apparent KD of MS2 coat protein” value by setting is: (input ligand: FMN 200 uM) 463 nM; (input ligand: none) 540 nM. As to “CCUUAGUAAGGAUAUCAGCUUAUAGAGUUGGUAAUGAGAGCUGAGAAGGUACAUGAGGAUCACCCAUGUUAGUU [JL Zatite mod 4] (puzzle: Exclusion 4)”, the “apparent KD of MS2 coat protein” value under setting [1] was found to be 20.3 nM. Regarding “CCUUGACAUGAGGAUCACCCAUGUGAGGAUAUCCUGCGAGGAUCAAAAGAUCCUCGUGGGAGAAGGCAUAUGAA [Omei Ex1 A7] (Eterna round: R97, puzzle: Exclusion 1)”, the “apparent KD of MS2 coat protein” value (input ligand: FMN 200 uM) was 32.6 nM and the “apparent KD of MS2 coat protein” value (input ligand: none) is 16.7 nM. Take “CCUUGACAUGAGGAUCACCCAUGUUAGGAUAUAACAUUUGACACUACAGUAUGAAGUGUUAGAAGGGAUAUGGG [-22.5, -21 kcal, A 32%] (Eterna round: R97, puzzle: Exclusion 1)”: the “apparent KD of MS2 coat protein” value (input ligand: FMN 200 uM) was found to be 39.4 nM and the “apparent KD of MS2 coat protein” value (input ligand: none) stood at 29.8 nM. On the same counts, the results for “CCUUGUGUUGAGGAUAUGCGCCGGCUCGCUGGCGCAGAAGGCGGCACAUGAGGAUCACCCAUGUCAGUUCGCGU [salish99_ex6_r004_014] (Eterna round: R97, puzzle: Exclusion 6)” are 431 nM and 29.8 nM. As for “CCUUUGUCAGGAUAUCGAAAAGGGAGGCCAAAGGCCUCCGGUGAGAAGGGACAUGAGGAUCACCCAUGUGAAAA [Soonbidibe] (puzzle: Exclusion 4)”, the “apparent KD of MS2 coat protein” value under setting [1] was determined as 57.5 nM. Consider “CCUUUGUGAGGAUAUCGUUGGCCAGACAUGAGGAUCACCCAUGUGGCUGGAACUCAUGGACGAGAAGGCACCUCUU [Eternabot (L2) Solution 52] (Eterna round: R97, puzzle: Exclusion 5)”, for which the “apparent KD of MS2 coat protein” value came to 338 nM (input ligand: FMN 200 uM) and 399 nM (input ligand: none).

For the sequence “CGAAAGUUAGGAUAUGCCCGGAACGACAUGAGGAUCACCCAUGUUAGCAAGGGACCUGGCGCAGAAGGAACGGAUA [EX5 C.20] (Eterna round: R97, puzzle: Exclusion 5)”, the “apparent KD of MS2 coat protein” value runs as follows: (input ligand: FMN 200 uM) 20.2 nM; (input ligand: none) 19.3 nM.

Take “CGAAGUAGAAACCGAUCCUACAUGAGGAUCACCCAUGUAGCAAGACGUGCACGCGAAGCUCGUCAGACUACCAGAAA [salish99_TOv1_r3_016] (puzzle: Sensor v3, turn-off variant 1)”: the “apparent KD of MS2 coat protein” value (Eterna round: R95, input ligand: FMN 200 uM) turned out to be 200 nM; the “apparent KD of MS2 coat protein” value under setting [1] was 213 nM; the “apparent KD of MS2 coat protein” value (Eterna round: R95, input ligand: none) came out at 304 nM. In the case of “CGACCACAUGUAAACUGACACAUGAGGAUCACCCAUGUCAAGCUACGUUAGACUAAGCUCGCUACUACUCGUCUUAA [Eternabot (L2) Solution 4] (Eterna round: R97, puzzle: Sensor, turn-off variant 1)”, the “apparent KD of MS2 coat protein” value by setting is: (input ligand: FMN 200 uM) 66.8 nM; (input ligand: none) 69.8 nM.

Consider “CGAGCUCAUGUGAGGAUAUACCUAUGGAUACAUAGGUAGAAGGCACAUGAGGAUCACCCAUGUCCUAGAGCUCG [jl-bmx4-4.58] (Eterna round: R97, puzzle: Brourd's mod of Exclusion 4)”, for which the “apparent KD of MS2 coat protein” value was 821 nM (input ligand: FMN 200 uM) and 138 nM (input ligand: none). On the same counts, the results for “CGAGGUAGAGGAUAUACGUGGAUGUAAAUUCAUGUUAAUCUACAUGAGGAUCACCCAUGUAGAAGGCUAUAGCG [JR_Ex2_Sub076] (Eterna round: R97, puzzle: Exclusion 2)” are 27.8 nM and 30.6 nM. In the same order, the values of “CGAUGCAAAGUAAGGAUAUGCUUCCGGAAACGGAGGCAGAAGGUACAUGAGGAUCACCCAUGUUAAAAGCAUCG [Explosion 3 - Jieux - Brourd's mod of Exclusion 4] (Eterna round: R97, puzzle: Brourd's mod of Exclusion 4)” are 16.3 nM and 14.2 nM.
